# Results taken from patent US20210308211A1, “METHOD OF TREATING VIRAL INFECTIONS” (priority 2020, published 2021).
# Non-standard residues stand in square brackets, D forms with d. Residues, ends and D or L forms follow the SMILES beside them. No end group written: not given here. Met(O) = CS(=O)CC[C@H](N)C(=O)O; pS = N[C@@H](COP(=O)(O)O)C(=O)O
# Assays:
# HSC70 protein = molecular target: T1, HSC70 protein (Bos taurus, UniProt P19120); experiment: BIAcore binding of peptides to immobilized HSC70; parameters: species or system bovine
# T1 construct: purchased Stressgen
# T1 sequence (P19120 whole entry): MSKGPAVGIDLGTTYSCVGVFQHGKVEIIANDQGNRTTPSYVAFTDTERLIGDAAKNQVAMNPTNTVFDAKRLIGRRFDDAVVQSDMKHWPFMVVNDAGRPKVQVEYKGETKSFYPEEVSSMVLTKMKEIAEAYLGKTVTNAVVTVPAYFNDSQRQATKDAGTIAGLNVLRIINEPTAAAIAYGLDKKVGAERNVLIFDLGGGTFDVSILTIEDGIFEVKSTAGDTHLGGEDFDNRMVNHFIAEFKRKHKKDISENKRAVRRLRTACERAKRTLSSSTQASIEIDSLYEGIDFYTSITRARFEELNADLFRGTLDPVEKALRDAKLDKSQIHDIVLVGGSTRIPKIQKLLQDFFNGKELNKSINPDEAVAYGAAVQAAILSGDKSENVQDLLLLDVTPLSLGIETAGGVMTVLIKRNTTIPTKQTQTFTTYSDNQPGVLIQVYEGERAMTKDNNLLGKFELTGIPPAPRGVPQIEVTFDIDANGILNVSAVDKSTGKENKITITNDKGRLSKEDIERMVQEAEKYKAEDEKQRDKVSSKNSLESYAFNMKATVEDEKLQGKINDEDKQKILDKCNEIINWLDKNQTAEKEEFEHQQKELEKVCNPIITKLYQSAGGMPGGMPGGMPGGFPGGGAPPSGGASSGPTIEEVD
# Procedure: BIAcore 3000 system (Biacore AB) was used to evaluate the binding of P140 peptides to HSC70 protein (Page et al., 2009, and 2011). Sensor chip CM5, surfactant P20, amine coupling kit containing N-hydroxysuccinimide (NHS) and N-ethyl-N′-dimethylaminopropyl carbodiimide (EDC), 2-(2-pyridinyldithio)ethaneamine (PDEA) and ethanolamine were from Biacore AB. Biosensor assays were performed with HBS-EP buffer as running buffer (10 mM HEPES, 150 mM NaCl, 3 mM EDTA, 0.005% surfactant P20, pH 7.4). The compounds were diluted in the running buffer. The sensor chip surface was regenerated after each experiment by injecting 10 μL of 10 mM HCl. Recombinant bovine HSC70 (Stressgen) was immobilized on flow cells of a CM5 sensor chip through its thiol groups using 35 μL PDEA in 50 mM borate buffer, pH 8.3 on the NHS/EDC-activated matrix. Then, 35 μL of HSC70 (100 μg/mL in formate buffer, pH 4.3) were injected until a response of 13,000 response units (RU) corresponding to 13 ng/mm^2 of HSC70 was immobilized. Twenty μL of a 50 mM cysteine/1 M NaCl solution was used to saturate unoccupied sites on the chip. The direct binding measurement of P140 peptides to HSC70 was carried out at 25° C. with a constant flow rate of 20 μL/min. P140 peptide and analogues were injected in the flux at different concentrations for 3 min, followed by a dissociation phase of 3 min. The kinetic parameters were calculated using the BIAeval 3.1 software on a personal computer. Analysis was performed using the simple 1:1 Langmuir binding model. The specific binding profiles were obtained after subtracting the response signal from the control empty channel and from blank-buffer injection. The fitting to each model was judged by the χ^2 value and randomness of residue distribution compared to the theoretical model.
# MRL/lpr mice [1] = experiment: Proteinuria analysis in MRL/lpr mice (Albustix); type: in vivo, mouse; conditions: compared to the untreated mice
# Procedure: Proteinuria of the above mice was measured in fresh urine using Albustix (Bayer Diagnostics) and was semi-quantitatively estimated according to a […] recommended by the manufacturer (no proteinuria=0; traces=1; 1+=2; 2+=3; 3+=4; 4+=5).
# MRL/lpr mice [2] = experiment: Survival analysis in MRL/lpr lupus mice; type: in vivo, mouse; conditions: female MRL/lpr mice, intravenous, 20 mice per group; NaCl control 25 weeks
# Procedure: It has been determined that this mouse strain carries a mutation in the fas gene. Also, the MRL/lpr is a useful model to study behavioural and cognitive deficits found in autoimmune diseases and the efficacy of immunosuppressive agents [Monneaux et al., 2003, Eur. J. Immunol. 33, 287-296].
# Five-week-old female MRL/lpr mice received P140 or peptide P140(MO) intravenously as described (Monneaux et al., 2003, Eur. J. Immunol. 33, 287-296). All experimental protocols were carried out with the approval of the local Institutional Animal Care and Use Committee (CREMEAS). As control, mice were injected with NaCl.
# Twenty mice were used for each peptide or NaCl.
# Statistical tests were performed using GraphPad Prism version 5.0. The two-way ANOVA test was used to analyze statistical significance of proteinuria differences between control and peptide-treated groups of mice. Survival of control and P140 analogue-treated female MRL/lpr mice was analyzed by the Kaplan-Meier method, and the significance of differences was determined by the log-rank test. For the other variables, statistical significance was assessed using the Student's t-test. p values less than 0.05 were considered significant.
# MRL/lpr mice [3] = experiment: Cellularity analysis of peripheral blood in MRL/lpr mice; type: in vivo, mouse; conditions: 100 μg/100 μL single injection, 5 days after
# Procedure: MRL/lpr mice were injected with 100 μg/100 μL of P140 or P140(MO) and cellularity (preipheral blood) was studied 5 days after this unique injection. The count includes all the leucocytes. In view of the low number of tested mice, a non parametric statistical test has been realised Mann-Whitney).
# [4] = molecular target: Recombinant bovine HSC70 (Stressgen) (bovine) (UniProt P19120); experiment: SPR, BIAcore 3000; HSC70 immobilised, peptide injected; 1:1 Langmuir fit; row for analyte at 1.56 µM
# Recombinant bovine HSC70 (Stressgen) (bovine), sequence (P19120 whole entry): as above
# [5] = molecular target: Recombinant bovine HSC70 (Stressgen) (bovine) (UniProt P19120); experiment: SPR, BIAcore 3000; HSC70 immobilised, peptide injected; 1:1 Langmuir fit; row for analyte at 3.12 µM
# [6] = molecular target: Recombinant bovine HSC70 (Stressgen) (bovine) (UniProt P19120); experiment: SPR, BIAcore 3000; HSC70 immobilised, peptide injected at 1.56 µM; 1:1 Langmuir fit
# [7] = molecular target: Recombinant bovine HSC70 (Stressgen) (bovine) (UniProt P19120); experiment: SPR, BIAcore 3000; HSC70 immobilised, peptide injected; 1:1 Langmuir fit; row for analyte at 6.25 µM
# [8] = molecular target: Recombinant bovine HSC70 (Stressgen) (bovine) (UniProt P19120); experiment: SPR, BIAcore 3000; HSC70 immobilised, peptide injected at 25 µM; 1:1 Langmuir fit
# [9] = molecular target: Recombinant bovine HSC70 (Stressgen) (bovine) (UniProt P19120); experiment: SPR, BIAcore 3000; HSC70 immobilised, peptide injected at 12.5 µM; 1:1 Langmuir fit
# [10] = molecular target: Recombinant bovine HSC70 (Stressgen) (bovine) (UniProt P19120); experiment: SPR, BIAcore 3000; HSC70 immobilised, peptide injected; 1:1 Langmuir fit; row for analyte at 12.5 µM
# [11] = molecular target: Recombinant bovine HSC70 (Stressgen) (bovine) (UniProt P19120); experiment: SPR, BIAcore 3000; HSC70 immobilised, peptide injected; 1:1 Langmuir fit; row for analyte at 25 µM
# [12] = molecular target: Recombinant bovine HSC70 (Stressgen) (bovine) (UniProt P19120); experiment: SPR, BIAcore 3000; HSC70 immobilised, peptide injected at 6.25 µM; 1:1 Langmuir fit
# [13] = molecular target: Recombinant bovine HSC70 (Stressgen) (bovine) (UniProt P19120); experiment: SPR, BIAcore 3000; HSC70 immobilised, peptide injected at 3.12 µM; 1:1 Langmuir fit
Ka [4],Kd [4],koff [4],Ka [5],Kd [5],koff [5],Req [6],kobs [6],Ka [7],Kd [7],koff [7],Req [8],kobs [8],Req [9],kobs [9],Ka [10],Kd [10],koff [10],Ka [11],Kd [11],Molecule,other results
,,,,,,,,,,,,,,,,,,,,"CC[C@H](C)[C@H](NC(=O)[C@H](Cc1ccccc1)NC(=O)[C@H](C)NC(=O)[C@H](Cc1ccc(O)cc1)NC(=O)CNC(=O)[C@H](CCCNC(=N)N)NC(=O)[C@@H]1CCCN1C(=O)[C@H](CCCCN)NC(=O)CNC(=O)[C@H](COP(=O)(O)O)NC(=O)[C@H](CCCNC(=N)N)NC(=O)[C@H](CCCCN)NC(=O)[C@H](CO)NC(=O)[C@H](Cc1ccc(O)cc1)NC(=O)[C@@H](NC(=O)[C@H](CC[S+](C)[O-])NC(=O)[C@H](Cc1c[nH]cn1)NC(=O)[C@@H](NC(=O)[C@@H](N)CCCNC(=N)N)[C@@H](C)CC)C(C)C)C(=O)N[C@@H](CCC(=O)O)C(=O)N[C@@H](Cc1ccc(O)cc1)C(=O)O (stereo partly drawn) [P140(MO), RIHM(O)VYSKRS(PO3H2)GKPRGYAFIEY] (H-RIH[Met(O)]VYSKR[pS]GKPRGYAFIEY-OH)","Rmax (RU) (HSC70 protein; 25° C., 1:1 Langmuir model): 39 RU; kon (HSC70 protein; 25° C., 1:1 Langmuir model, analyte 1.56-25 μM, read-out: ka): 1150 M⁻¹ s⁻¹; Affinity for HSC70, oxidized vs non-oxidized peptide (in words) (HSC70 protein; P140 compared with P140 M(O)): not statistically different; Req (RU) (HSC70 protein; peptide 1.56 μM): 17.6 RU; Req (RU) (HSC70 protein; peptide 3.12 μM): 24.2 RU; Req (RU) (HSC70 protein; peptide 6.25 μM): 29.9 RU; Req (RU) (HSC70 protein; peptide 12.5 μM): 33.9 RU; kobs (HSC70 protein; peptide 12.5 μM): 0.0166 s⁻¹; Req (RU) (HSC70 protein; peptide 25 μM): 36.3 RU; kobs (HSC70 protein; peptide 25 μM): 0.031 s⁻¹; Proteinuria (MRL/lpr mice [1]): less important and appears lately; Median survival (MRL/lpr mice [2]): > 40 weeks; Peripheral hypercellularity (MRL/lpr mice [3]): decrease peripheral hypercellularity"
524000 M⁻¹,1.91 µM,0.0022 s⁻¹,524000 M⁻¹,1.91 µM,0.0022 s⁻¹,17.6 RU,0.004 s⁻¹,524000 M⁻¹,1.91 µM,0.0022 s⁻¹,36.3 RU,0.031 s⁻¹,33.9 RU,0.0166 s⁻¹,524000 M⁻¹,1.91 µM,0.0022 s⁻¹,524000 M⁻¹,1.91 µM,RIH[Met(O)]VYSKR[pS]GKPRGYAFIEY,koff [11]: 0.0022 s⁻¹; Req [12]: 29.9 RU; kobs [12]: 0.0094 s⁻¹; Req [13]: 24.2 RU; kobs [13]: 0.0058 s⁻¹
144000 M⁻¹,6.94 µM,0.00312 s⁻¹,144000 M⁻¹,6.94 µM,0.00312 s⁻¹,15.3 RU,0.00382 s⁻¹,144000 M⁻¹,6.94 µM,0.00312 s⁻¹,65.2 RU,0.0144 s⁻¹,53.6 RU,0.00874 s⁻¹,144000 M⁻¹,6.94 µM,0.00312 s⁻¹,144000 M⁻¹,6.94 µM,RIHMVYSKR[pS]GKPRGYAFIEY [P140 peptide (SEQ ID NO: 1 in which serine at position 10 is phosphorylated; SEQ ID NO: 4)],koff [11]: 0.00312 s⁻¹; Req [12]: 39.5 RU; kobs [12]: 0.00593 s⁻¹; Req [13]: 25.8 RU; kobs [13]: 0.00452 s⁻¹
